Test [1] has as its target Human His-Gαi3 G42 mutant (human, UniProt P08754 1-354). The test can be described thus: FP.
Test [2] concerns the target Human His-Gαi3 V218 mutant (human, UniProt P08754 1-354). The experiment in a line: FP.
Test [3] addresses Human His-Gαi3 W258 mutant (human, UniProt P08754 1-354). The experiment in a line: FP.
Test [4] concerns the target Human His-Gαi3 L36 mutant (human, UniProt P08754 1-354). The test can be described thus: FP.
The target of test [5] is Human His-Gαi3 I184 mutant (human, UniProt P08754 1-354). The experiment in a line: FP.
For test [6], the target named is Human His-Gαi3 K257 mutant (human, UniProt P08754 1-354). The experiment in a line: FP.
Test [7] addresses Human His-Gαi3 L39 mutant (human, UniProt P08754 1-354). The experiment in a line: FP.
Test [8] concerns the target Human His-Gαi3 L37 mutant (human, UniProt P08754 1-354). The experiment in a line: FP.
Test [9] concerns the target Human His-Gαi3 F259 mutant (human, UniProt P08754 1-354). The experiment in a line: FP.
Test [10] has as its target Human His-Gαi3 R313 mutant (human, UniProt P08754 1-354). The experiment in a line: FP.
Test [11] deals with T1, Human His-Gαi3 K317 mutant (human, UniProt P08754 1-354). The experiment in a line: FP; K317A.
Test [12] concerns the target T2, Human His-Gαi3 WT (human, UniProt P08754 1-354).
T2 chain: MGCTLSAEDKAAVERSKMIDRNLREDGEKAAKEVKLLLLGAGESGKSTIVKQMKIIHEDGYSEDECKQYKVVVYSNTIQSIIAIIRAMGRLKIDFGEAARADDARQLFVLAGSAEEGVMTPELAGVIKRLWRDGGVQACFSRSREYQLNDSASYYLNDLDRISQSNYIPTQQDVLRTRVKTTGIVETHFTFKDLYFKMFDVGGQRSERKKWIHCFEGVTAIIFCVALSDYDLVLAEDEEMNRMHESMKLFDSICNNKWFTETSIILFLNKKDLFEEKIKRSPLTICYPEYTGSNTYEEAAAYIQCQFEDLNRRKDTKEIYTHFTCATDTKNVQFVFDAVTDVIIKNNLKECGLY
The experiment in a line: FP.

Test [13] addresses T3, Human His-Gαi3 ΔC9 (lacking the last nine residues) (human, UniProt P08754 1-345).
T3 chain: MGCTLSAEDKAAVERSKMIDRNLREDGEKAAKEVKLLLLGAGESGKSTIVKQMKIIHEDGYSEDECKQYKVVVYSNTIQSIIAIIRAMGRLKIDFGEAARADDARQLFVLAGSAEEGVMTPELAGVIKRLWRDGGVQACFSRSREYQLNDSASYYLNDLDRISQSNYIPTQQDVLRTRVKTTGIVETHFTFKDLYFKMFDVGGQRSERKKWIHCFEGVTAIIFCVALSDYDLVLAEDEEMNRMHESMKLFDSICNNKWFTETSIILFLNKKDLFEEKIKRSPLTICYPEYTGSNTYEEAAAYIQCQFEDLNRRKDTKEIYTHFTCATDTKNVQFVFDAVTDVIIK
The test can be described thus: FP.

Test [14] concerns the target T2, Human His-Gαi3 WT. The experiment in a line: FP.
Another test addresses Human His-Gαi3 S252D (human, UniProt P08754 1-354, S252D). The experiment in a line: FP.
The target of another test is Human His-Gαi3 N256A (human, UniProt P08754 1-354, N256 mutated to A). The test can be described thus: FP.
The target of a further test is Human His-Gαi3 L249H (human, UniProt P08754 1-354, L249H). The test can be described thus: FP.
The target of the next test is T4, Gαi3 L249V (Homo sapiens).
T4 chain: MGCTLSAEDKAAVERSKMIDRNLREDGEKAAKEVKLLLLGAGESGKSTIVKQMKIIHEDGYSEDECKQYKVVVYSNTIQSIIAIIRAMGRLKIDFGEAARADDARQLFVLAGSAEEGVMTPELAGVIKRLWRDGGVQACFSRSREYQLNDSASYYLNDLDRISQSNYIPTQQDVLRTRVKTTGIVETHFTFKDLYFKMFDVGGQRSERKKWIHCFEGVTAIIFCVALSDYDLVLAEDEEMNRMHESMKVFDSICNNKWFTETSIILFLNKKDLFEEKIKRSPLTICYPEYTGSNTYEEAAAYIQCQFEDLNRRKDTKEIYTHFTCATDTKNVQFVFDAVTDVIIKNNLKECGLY
The experiment in a line: FP.

Test [15] deals with T2, Human His-Gαi3 WT. The experiment in a line: FP.
Test [16] concerns the target T1, Human His-Gαi3 K317 mutant. The experiment in a line: FP; K317W.
In test [17] the target is T5, Full-length human Gαi3, untagged (NMR sample) (human, UniProt P08754 1-354).
T5 chain: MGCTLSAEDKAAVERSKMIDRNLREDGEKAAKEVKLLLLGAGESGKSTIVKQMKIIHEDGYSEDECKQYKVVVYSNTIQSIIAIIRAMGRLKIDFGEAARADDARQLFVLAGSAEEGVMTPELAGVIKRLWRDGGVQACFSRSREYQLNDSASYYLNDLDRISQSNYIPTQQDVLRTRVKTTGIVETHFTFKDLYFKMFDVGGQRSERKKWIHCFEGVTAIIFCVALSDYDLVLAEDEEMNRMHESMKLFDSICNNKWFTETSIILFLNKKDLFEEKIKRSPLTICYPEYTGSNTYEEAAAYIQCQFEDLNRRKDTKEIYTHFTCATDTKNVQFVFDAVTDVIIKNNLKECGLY
The experiment in a line: FP; His-tag cleaved Gαi3.

The next test has as its target Human His-Gαi3 S252A (human, UniProt P08754 1-354, S252 mutated to A). The test can be described thus: FP.
In a further test the target is Human His-Gαi3 W211A (human, UniProt P08754 1-354, W211A). The test can be described thus: FP.

Read-outs that look alike come from different tables or passages of the source. Where no end group is shown, it is not given here.

B1: Fluorescein-labelled GIV peptide (residues 1,671–1,701) (peptide)
peptide: KTGSPGSEVVTLQQFLEESNKLTSVQIKSSS
modifications: not fully specified (N-terminus); also: 5,6-carboxyfluorescein coupled to resin-bound peptide after elongation, site not given here
B1: the dissociation constant Kd in [1] worked out at 377 nM; in test [2] it was 362 nM; in test [3], 1820 nM; in [4], 706 nM; in test [5] it was 1910 nM; in test [6] it was 870 nM. The Kd stood at 3080 nM in test [7]; 478 nM in [8]; 1260 nM in [9]; 800 nM in test [10]; 590 nM in [11]; 580 nM with Human His-Gαi3 WT [12]. The Kd in test [13] was determined as 700 nM; with Human His-Gαi3 WT [14] it was 581 nM; in the test with Human His-Gαi3 S252D, 3090 nM; with Human His-Gαi3 N256A, 1040 nM; with Human His-Gαi3 L249H it was 4410 nM; with Gαi3 L249V, 1370 nM. The figures for the Kd (with Human His-Gαi3 WT [15]; in test [16]; in [17]) were 580 nM, 510 nM and 680 nM, respectively.

B2: Fluorescein-labelled RGS12 GoLoco peptide (residues 1,185–1,221) (peptide)
peptide: DEAEEFFELISKAQSNRADDQRGLLRKEDLVLPEFLR
modifications: not fully specified (N-terminus); also: 5,6-carboxyfluorescein coupled to resin-bound peptide after elongation, site not given here
Consider B2, for which the dissociation constant (Kd) in [1] was found to be 98 nM; in [2] it was 104 nM; in test [3], 63 nM; in test [4] it was 119 nM; in [5] it was 83 nM; in [6], 86 nM. The dissociation constant (Kd) in test [7] stood at 176 nM; in [8], 80 nM; in test [9], 187 nM; with Human His-Gαi3 WT [14], 54 nM; in the test with Human His-Gαi3 S252D, 336 nM; with Human His-Gαi3 S252A, 35 nM. Further, the values for the Kd with Human His-Gαi3 W211A, in the test with Human His-Gαi3 L249H and with Gαi3 L249V were 61 nM, 266 nM and 84 nM, respectively.

By Kd is commonly meant the equilibrium constant for the complex coming apart.
